The results in this text go back to patent US20200048348A1.

Assay [1] deals with human CD3 (human) (UniProt P07766). The assay can be described thus: flow cytometry, bispecific antibody on Jurkat cells; antibody concentration not given.
Assay [2] shares this target. In words: Octet, protein binding affinity of the anti-CD3 arm of the bispecific; form of the CD3 protein not stated. In general terms: In BLI a coated tip is dipped into the sample, and binding shifts an interference pattern.
Assay [3] has the same target.

As a reminder, the Kd is the concentration at which binding is half-saturated. A higher Kd goes with weaker binding.

Sequence of human CD3 (human) (P07766 23-207, chain 1 of 2): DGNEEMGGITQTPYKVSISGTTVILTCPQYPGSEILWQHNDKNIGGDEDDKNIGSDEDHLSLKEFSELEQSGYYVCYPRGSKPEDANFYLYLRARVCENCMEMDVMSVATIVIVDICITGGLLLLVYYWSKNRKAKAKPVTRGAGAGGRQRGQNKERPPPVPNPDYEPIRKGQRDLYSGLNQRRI
Sequence of human CD3 (human) (P04234 22-171, chain 2 of 2, further chain): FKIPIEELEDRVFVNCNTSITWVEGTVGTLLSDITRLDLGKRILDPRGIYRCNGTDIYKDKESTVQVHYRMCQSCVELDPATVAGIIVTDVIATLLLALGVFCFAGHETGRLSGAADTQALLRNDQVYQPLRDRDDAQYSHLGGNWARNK

B1: CD3_F2F-BCMA (bispecific antibody, part only; not given: anti-BCMA arm and common light chain, part only)
anti-CD3 heavy chain: EVQLVESGGGLVQPGRSLRLSCAASGFTFHNYAMHWVRQAPGKGLEWVSGISWNSGSIGYADSVKGRFTISRDNAKNSLYLQMNSLRAEDTALYYCAKDSRGYGDYSLGGAYWGQGTLVTVSS
As for B1, the Jurkat cell bind (MFI) in assay [1] was 67 MFI. The molecule also gave a dissociation constant Kd in assay [2] of 714 nM. Besides, in assay [3], the %kill of U266 tumor cells with human pan T-cells at 333 ng/mL bispecific came to 51%; the IFNg released by pan T-cells, bispecific on plate-coated BCMA protein, at 12 ng/mL bispecific stood at 333 pg; the IL-2 released by pan T-cells, bispecific on plate-coated BCMA protein, at 37 ng/mL bispecific worked out at 44 pg; the IL-6 released by pan T-cells, bispecific on plate-coated BCMA protein, at 111 ng/mL bispecific was determined as 0.5 pg. In assay [3], the IL-10 released by pan T-cells, bispecific on plate-coated BCMA protein, at 111 ng/mL bispecific is 2.4 pg; the TNFa released by pan T-cells, bispecific on plate-coated BCMA protein, at 12 ng/mL bispecific is 485 pg; the kill EC50: U266 tumor cell lysis with human pan T-cells stood at 0.0098 µg/mL.

B2: CD3_F2B-BCMA (bispecific antibody, part only; not given: anti-BCMA arm and common light chain, part only)
anti-CD3 heavy chain: EVQLVESGGGLVQPGRSLRLSCAASGFTFDDYAMHWVRQAPGKGLEWVSGISWNSGSIGYADSVKGRFTISRDNAKNSLYLQMNSLRAEDTALYYCAKDSRGYGDYRLGGAYWGQGTLVTVSS
As for B2, in assay [1], the Jurkat cell bind (MFI) amounted to 31 MFI. In addition, the equilibrium dissociation constant (Kd) in assay [2] worked out at 1000 nM. Moreover, in assay [3], the %kill of U266 tumor cells with human pan T-cells at 333 ng/mL bispecific turned out to be 38%; the IFNg released by pan T-cells, bispecific on plate-coated BCMA protein, at 12 ng/mL bispecific was found to be 154 pg; the IL-2 released by pan T-cells, bispecific on plate-coated BCMA protein, at 37 ng/mL bispecific turned out to be 8 pg; the IL-6 released by pan T-cells, bispecific on plate-coated BCMA protein, at 111 ng/mL bispecific was 0.5 pg. In addition, in assay [3], the IL-10 released by pan T-cells, bispecific on plate-coated BCMA protein, at 111 ng/mL bispecific stood at 0.6 pg; the TNFa released by pan T-cells, bispecific on plate-coated BCMA protein, at 12 ng/mL bispecific turned out to be 553 pg; the kill EC50: U266 tumor cell lysis with human pan T-cells came to 0.15 µg/mL.
